These results are taken from patent US9526766B2, “Potentiation of antibiotic treatment with a protein-lipid complex” (priority 2012, dated 2016).

Like-named read-outs stand apart in the source and are kept apart here.

The subject of data set [1] is Staphylococci. Put plainly: Gentamicin, Vancomycin FL and Bocillin FL binding. Type of data set: cell-based, Staphylococcus aureus. The note with it: for Cell-associated level of vancomycin on addition of ALAFAC / Bocillin FL association with cells on addition of ALAFAC: 100 μg/mL ALAFAC. The method, then:
Gentamicin, Vancomycin and Bocillin FL Binding. We adapted a previously described method using AlexaFluor 488-gentamicin, vancomycin FL and Bocillin FL as reporter antibiotics to investigate association of these compounds with the staphylococcal cells. In brief, indicated strains were grown in TSB to an OD600nm of 0.5. Antibiotics were added at the following concentrations: Gentamicin at 50 μg/mL, Vancomycin FL at 20 μg/mL, Bocillin FL at 25 μg/mL alone, or in combination with ALAFAC at 100 μg/mL.
After 30 minutes, cultures were centrifuged at 9,000×g for 4 min, washed four times with PBS, and resuspended in a small volume of PBS. Cells were lysed by 5 successive freeze thaw cycles at −80° C. and 37° C. for 5 min each as described. The Bocillin FL, vancomycin FL or Alexa Fluor 488-gentamicin concentration was determined by measuring the amount of fluorescent material in a Synergy 2 microplate reader (Biotek) using excitation and emission wavelengths set at 485 and 530 nm, respectively. Linearity was obtained between 2 and 800 μg/mL; (R^2=0.9983) for AlexaFluor 488-gentamicin, between 0.5 and 100 μg/mL; (R^2=0.9928) for Bocillin FL, and between 0.25 and 50 μg/mL; (R^2=0.9919) for Vancomycin FL, with binding expressed as a ratio of the fluorescence of each sample divided with the sample protein content, determined by the 280/260 nm ratio using the using a BioTek Synergy 2 plate reader with the Take3 microdrop addition (Biotek)

The next data set concerns NRS 384 Staphylococci. Nature of the data set: Radioisotope 45Ca2+ transport assay. Type of data set: cell-based, Staphylococcus aureus. The note with it: ALAFAC addition, Ruthenium Red 30 μM. On the procedure: Radioisotope ^45Ca^2+ transport assays. Staphylococcus aureus was grown to log phase, washed three times and resuspended in 1×PBS containing 0.5 mM CaCl2 (CaPBS). No glucose was added in order to minimize the interference created by extrusion of Ca^2+ via ATPase pumps. ^45CaCl2 (PerkinElmer; Waltham, Mass., USA) was added to the cells at a final concentration of 2.5 μCi/mL, followed by inhibitor compound, with each addition given two minutes equilibration time. The untreated baseline sample was measured at this point. The sample was then divided, ALAFAC was added to one of the tubes, and ^45Ca^2+ uptake was measured at various intervals. For each sample, 100 μL was dispensed onto Millipore 0.3 μm PHWP filters (EMD Millipore; Billerica, Mass., USA) presoaked in CaPBS, and immediately washed with 9 mL of CaPBS via syringe filtration through Millipore Swinnex® filter holders. Filters were placed in scintillation vials with 5 mL of scintillation fluid, and CPMs were detected on a Wallac 1409 liquid scintillation counter (Wallac Oy, Turku, Finland). The results were expressed as ΔCPM that was calculated for each sample at the indicated time points as the difference between ALAFAC-treated and untreated samples.

Data set [2] concerns Staphylococci. Put plainly: Bactericidal activity of ALAFAC alone. The format is cell-based.
For data set [3], the system named is Escherichia coli. Nature of the data set: Bactericidal activity of ALAFAC alone. The format is cell-based.
Data set [4] has as its system Escherichia coli. The note with it: concentrations up to 5 mg/ml; cited from earlier work.
The subject of a further data set is Pseudomonas aeruginosa. The note with it: concentrations up to 5 mg/ml; cited from earlier work.
For data set [5] the following is noted: in vivo; cited from earlier work.

B1: ALAFAC: non-covalent complex of alpha-lactalbumin and fatty acid (oleic acid); labeled HAMLET or HL in drawings and tables (protein, UniProt P00709 20-142, looked up)
Alpha-lactalbumin: KQFTKCELSQLLKDIDGYGGIALPELICTMFHTSGYDTQAIVENNESTEYGLFQISNKLWCKSSQVPQSRNICDISCDKFLDDDITDDIMCAKKILDIKGIDYWLAHKALCTEKLEQWLCEKL
modifications: complexed with oleic acid
Regarding B1, the “Increase of cell-associated level of gentamicin by ALAFAC” value with Staphylococci [1] (NRS384, ALAFAC 100 μg/mL, P=0.09) was found to be 2.6 fold. For the same molecule, the entries for the “Cell-associated level of vancomycin on addition of ALAFAC” value in the data set on Staphylococci [1] (VISA strain NRS 1) and in the data set on Staphylococci [1] (vancomycin-sensitive strain) were “significantly increased” and “did not increase”, respectively. Also, the “Bocillin FL association with cells on addition of ALAFAC” value is “significantly increased” in the data set on Staphylococci [1] (methicillin-resistant strain NRS 384) and “no significant increase” in the data set with Staphylococci [1] (methicillin-sensitive strain). Further, in the data set with NRS 384 Staphylococci, the “Intracellular Ca2+ (45Ca2+ uptake)” value is listed as “rose immediately”. For the same molecule, the “Concentration of ALAFAC not triggering death” value with Staphylococci [2] and in the data set with Escherichia coli [3] was “exceeding 1,000 μg/ml” in each case. The Storage time result runs as follows: (physiological buffer (0.9% saline or PBS) at 4° C.) “at least 3 months”; (room temperature) “at least three”. Besides, the Bactericidal activity entry in the data set on Escherichia coli [4] and in the data set with Pseudomonas aeruginosa was “no detectable activity” in each case. Moreover, the Toxic side effects result in data set [5] is “without showing any toxic side effects”.
